Measured values as given in patent publication US11156615B2 (priority 2015, dated 2021).
Residue numbers refer to the chain shown, from its start. Where two headings read alike, the source gives them in different places.

B1: ttGBP182C.2.0-Imm0: ttGGBP182C.2.0 immobilization fusion construct Imm0 (SEQ ID NO: 173), Acrylodan labelled (conjugate)
chain: MKQLNIGVAIYKFDDTFMTGVRNAMTAEAQGKAKLNMVDSQNSQPTQNDQVDLFITKKMNALAINPVDRTAAGTIIDKAKQANIPVVFFNKEPLPEDMKKWDKVYYVGAKAEQSGILQGQIMADYWKAHPEADKNHDGVMQYVMLMGEPGHQDAILRTQYSIQTVKDAGIKVQELAKDYANCDRVTAHDKMAAWLSSFGDKIEAVFANNDDMALGAIEALKSAGYFTGNKYIPVVGVDATAPGIQAIKDGTLLGTVLNDAKNQAKATFNIAYELAQGITPTKDNIGYDITDGKYVWIPYKKITKDNISDAEQGGSHHHHHH
modifications: Acrylodan label; ttGGBP182C.2.0_Imm0
B2: ttGGBP5.2 Imm1: ttGGBP182C.2.0 immobilization fusion construct Imm1 (SEQ ID NO: 175), labelled, on NHS-functionalized agarose beads (conjugate)
chain: MKQLNIGVAIYKFDDTFMTGVRNAMTAEAQGKAKLNMVDSQNSQPTQNDQVDLFITKKMNALAINPVDRTAAGTIIDKAKQANIPVVFFNKEPLPEDMKKWDKVYYVGAKAEQSGILQGQIMADYWKAHPEADKNHDGVMQYVMLMGEPGHQDAILRTQYSIQTVKDAGIKVQELAKDYANCDRVTAHDKMAAWLSSFGDKIEAVFANNDDMALGAIEALKSAGYFTGNKYIPVVGVDATAPGIQAIKDGTLLGTVLNDAKNQAKATFNIAYELAQGITPTKDNIGYDITDGKYVWIPYKKITKDNISDAEQGGSGGSKKKKKKGGSHHHHHH
modifications: fluorescent label; immobilized on NHS-agarose beads; ttGGBP182C.2.0_Imm1
B3: ttGGBP17C.27: affinity-tuning mutant, 17C background, SEQ ID NO: 85 (protein)
chain: B1 chain with F17C, K91R, E148Q, C182W, A260F
modifications: ttGGBP17C.27 (affinity-tuning mutant, 17C background (Table 6) with signal peptide replaced with M and GGSHHHHHH at C-terminus)
B4: ttGGBP17C.28: affinity-tuning mutant, 17C background, SEQ ID NO: 86 (protein)
chain: B1 chain with F17C, K91R, E148Q, C182W, A260Y
modifications: ttGGBP17C.28 (affinity-tuning mutant, 17C background (Table 6) with signal peptide replaced with M and GGSHHHHHH at C-terminus)

Columns and labels:
[1] = assay type: physicochemical
Text: (§1) Panels A-C: ttGBP182C.2.0-Imm0; Panels D-F: ttGBP182C.2.0-Imm1 (see FIG. 13). (A) Solution (Tm=347.6K). (B) Immobilized on Nickel-nitriloacetic acid (Ni-NTA) beads (Tm=346.7K). (C) Reconstituted, desiccated Ni-NTA beads (Tm=347.6K). (D) Fluorescence response of ttGGBP5.2 Imm1 immobilized on NHS-functionalized agarose beads. Data was collected on a Roche LightCycler real-time PCS instrument, recording emission intensities at 488 nm and 510 nm as a function of temperature in a 384-well microtiter plate. […] Temperature melts of twelve different wells. Apo protein thermostability as reported by the denaturation mid-point temperature is 349 K, similar to the protein free in solution. […] (F) Representative Langmuir ligand-binding curve extracted from the three-dimensional data.
(§2) Site-specific immobilization minimizes perturbation of the sensing mechanism. […] Similarly, hexa-lysine fusion domains were immobilized on agarose beads derivatized with N-hydroxysuccinimide, and the QNK- or βZif-fusion on iodacetyl-derivatized beads.

[2] = Thermostability: mid-point thermal denaturation temperature (Tm) from temperature-dependent fluorescence (Roche LightCycler); assay type: physicochemical; settings: for apoTm: Badan conjugate, apo-protein
Outline: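 Unfolding tracked by SYPRO binding to denatured protein, fluorescence at 488 nm/510 nm recorded on a LightCycler as temperature rose in 1 K steps. Tm taken as denaturation mid-point, for protein in solution or immobilized on Ni-NTA or NHS-agarose beads.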

[3] = Glucose titration of bead-immobilized sensor; assay type: binding; settings: read-out: Kd (glucose); 25° C.; immobilized on NHS-functionalized agarose beads
Text: as §1
Data were highly precise, being reproducible <0.2% coefficient of variance.
as §2

[4] = Glucose binding: isothermal fluorescence titrations, ratiometric (appKd) and monochromatic (trueKd) fits; settings: Badan conjugate, room temperature
Text: 2 For a single glucose-binding site, the fractional saturation is given by
[formula] where ^apoIλ2 and ^satIλ2 are the emission intensities of the monochromatic signal at wavelength λ2 of the ligand-free and ligand-bound protein, respectively.

[5] = Galactose binding: isothermal fluorescence titrations of conjugates; settings: Badan conjugate; for S, selectivity = trueKd(galactose)/trueKd(glucose): S > 1, selective for glucose; for Kd: read-out: Galactose trueKd, monochromatic titration curves, room temperature
[6] = Glucose-dependent fluorescence emission intensity spectra of conjugates (Nanodrop3300); assay type: biochemical; settings: Badan conjugate of ttGGBP.17C mutant; Nanodrop3300
[7] = read-out: Glucose appKd, dichromatic ratiometry
[8] = read-out: Glucose trueKd, monochromatic titration curves

Molecule	Tm ([1]; immobilized on Ni-NTA beads (FIG. 14B)) [°C]	Tm ([1]; reconstituted, desiccated Ni-NTA beads (FIG. 14C)) [°C]	Tm ([2]; solution (FIG. 14A)) [°C]	Kd [3] [µM]	denaturation mid-point temperature (apo protein thermostability) [1] [K]	Kd [4, 7] [µM]	Kd [4, 8] [µM]	S, selectivity = trueKd(galactose)/trueKd(glucose) [5]	Kd [5] [µM]	Type of fluorescence response to glucose [6]	apoTm [2] [K]
B1	73.6	74.5	74.5								
B2				4800	349						
B3						200	300	33	8800	i (i, intensity increase only)	346
B4						60	70	37	2600	i (i, intensity increase only)	346
